Consider 96 substances from the Human Domainome abundance scans (Beltran et al. 2025).

± gives the uncertainty stated by the source.

The data set in a line: abundance fitness (aPCA) (normalised: wild type 0, dead -1); higher = more abundant; growth selection in yeast, the domain comes from the species named. Conditions: Homo sapiens.
With “Scaffold attachment factor B1 S55H, Q15424”, the abundance fitness is -0.291 ± 0.091.
The value for “Scaffold attachment factor B1 S55I, Q15424” was -0.261 ± 0.09; that for “Scaffold attachment factor B1 S55K, Q15424” was -0.229 ± 0.093.
The value for “Scaffold attachment factor B1 S55L, Q15424” was -0.147 ± 0.049; that for “Scaffold attachment factor B1 S55M, Q15424” was -0.12 ± 0.072; that for “Scaffold attachment factor B1 S55N, Q15424” was -0.13 ± 0.08.
Then “Scaffold attachment factor B1 S55P, Q15424”, with -0.429 ± 0.1; and “Scaffold attachment factor B1 S55Q, Q15424”, with -0.133 ± 0.059.
“Scaffold attachment factor B1 S55R, Q15424” gave an abundance fitness of -0.083 ± 0.06.
Turning to “Scaffold attachment factor B1 S55T, Q15424”, the abundance fitness was -0.199 ± 0.071.
The value for “Scaffold attachment factor B1 S55V, Q15424” was -0.081 ± 0.055; that for “Scaffold attachment factor B1 S55W, Q15424” was -0.287 ± 0.056.
Then “Scaffold attachment factor B1 S55Y, Q15424”, with -0.307 ± 0.08; and “Scaffold attachment factor B1 S79A, Q15424”, with -0.127 ± 0.065; and “Scaffold attachment factor B1 S79C, Q15424”, with -0.286 ± 0.077.
The value for “Scaffold attachment factor B1 S79E, Q15424” was -0.288 ± 0.097.
On to “Scaffold attachment factor B1 S79F, Q15424”, for which the abundance fitness was -0.239 ± 0.08.
Then “Scaffold attachment factor B1 S79G, Q15424”, with -0.119 ± 0.062; and “Scaffold attachment factor B1 S79H, Q15424”, with -0.266 ± 0.086; and “Scaffold attachment factor B1 S79K, Q15424”, with -0.229 ± 0.1.
Then “Scaffold attachment factor B1 S79L, Q15424”, with -0.118 ± 0.068.
For “Scaffold attachment factor B1 S79M, Q15424”, the abundance fitness is -0.136 ± 0.063.
As to “Scaffold attachment factor B1 S79N, Q15424”, the abundance fitness is -0.264 ± 0.091.
Then “Scaffold attachment factor B1 S79P, Q15424”, with -0.108 ± 0.06; and “Scaffold attachment factor B1 S79Q, Q15424”, with -0.443 ± 0.11; and “Scaffold attachment factor B1 S79R, Q15424”, with -0.25 ± 0.081.
The value for “Scaffold attachment factor B1 S79T, Q15424” was -0.129 ± 0.062; that for “Scaffold attachment factor B1 S79V, Q15424” was -0.131 ± 0.06.
The value for “Scaffold attachment factor B1 S79W, Q15424” was -0.409 ± 0.087; that for “Scaffold attachment factor B1 S79Y, Q15424” was -0.286 ± 0.078.
In turn, “Scaffold attachment factor B1 T26A, Q15424” returned an abundance fitness of -0.282 ± 0.12.
Then “Scaffold attachment factor B1 T26C, Q15424”, with -0.22 ± 0.079.
The value for “Scaffold attachment factor B1 T26D, Q15424” was -0.915 ± 0.36; that for “Scaffold attachment factor B1 T26E, Q15424” was -0.242 ± 0.13.
“Scaffold attachment factor B1 T26G, Q15424” had an abundance fitness of -0.304 ± 0.071.
“Scaffold attachment factor B1 T26I, Q15424” registered an abundance fitness of -0.314 ± 0.14.
The value for “Scaffold attachment factor B1 T26K, Q15424” was -0.31 ± 0.14; that for “Scaffold attachment factor B1 T26L, Q15424” was -0.518 ± 0.15.
The value for “Scaffold attachment factor B1 T26M, Q15424” was -0.213 ± 0.12; that for “Scaffold attachment factor B1 T26N, Q15424” was -0.936 ± 0.37.
Then “Scaffold attachment factor B1 T26P, Q15424”, with -0.565 ± 0.16; and “Scaffold attachment factor B1 T26Q, Q15424”, with -1.01 ± 0.34.
Substance “Scaffold attachment factor B1 T26S, Q15424” gave an abundance fitness of -0.452 ± 0.099.
Turning to “Scaffold attachment factor B1 T26V, Q15424”, the abundance fitness was -0.417 ± 0.12.
The value for “Scaffold attachment factor B1 T26W, Q15424” was -0.355 ± 0.075; that for “Scaffold attachment factor B1 T28A, Q15424” was -0.519 ± 0.083; that for “Scaffold attachment factor B1 T28D, Q15424” was -0.257 ± 0.1.
Then “Scaffold attachment factor B1 T28E, Q15424”, with -0.261 ± 0.08; and “Scaffold attachment factor B1 T28F, Q15424”, with -0.142 ± 0.084.
As for “Scaffold attachment factor B1 T28G, Q15424”, the abundance fitness is -0.337 ± 0.055.
Then “Scaffold attachment factor B1 T28H, Q15424”, with -0.434 ± 0.09; and “Scaffold attachment factor B1 T28I, Q15424”, with -0.038 ± 0.065; and “Scaffold attachment factor B1 T28L, Q15424”, with -0.261 ± 0.07.
The value for “Scaffold attachment factor B1 T28M, Q15424” was -0.234 ± 0.083; that for “Scaffold attachment factor B1 T28N, Q15424” was -0.196 ± 0.099.
The value for “Scaffold attachment factor B1 T28P, Q15424” was -0.348 ± 0.07; that for “Scaffold attachment factor B1 T28Q, Q15424” was -0.485 ± 0.073; that for “Scaffold attachment factor B1 T28R, Q15424” was -0.301 ± 0.055.
Regarding “Scaffold attachment factor B1 T28S, Q15424”, the abundance fitness is -0.183 ± 0.055.
Then “Scaffold attachment factor B1 T28V, Q15424”, with -0.229 ± 0.056; and “Scaffold attachment factor B1 T28W, Q15424”, with -0.455 ± 0.088; and “Scaffold attachment factor B1 T28Y, Q15424”, with -0.073 ± 0.068.
Then “Scaffold attachment factor B1 T78A, Q15424”, with -0.345 ± 0.09.
Then “Scaffold attachment factor B1 T78C, Q15424”, with -0.267 ± 0.079.
Take “Scaffold attachment factor B1 T78D, Q15424”: the abundance fitness was -0.271 ± 0.086.
The value for “Scaffold attachment factor B1 T78F, Q15424” was -0.323 ± 0.1; that for “Scaffold attachment factor B1 T78H, Q15424” was -0.427 ± 0.096.
The value for “Scaffold attachment factor B1 T78I, Q15424” was -0.17 ± 0.069; that for “Scaffold attachment factor B1 T78K, Q15424” was -0.131 ± 0.076; that for “Scaffold attachment factor B1 T78L, Q15424” was -0.091 ± 0.057.
Then “Scaffold attachment factor B1 T78M, Q15424”, with -0.356 ± 0.086; and “Scaffold attachment factor B1 T78N, Q15424”, with -0.182 ± 0.11.
For the substance “Scaffold attachment factor B1 T78P, Q15424”, the abundance fitness was -0.21 ± 0.071.
The value for “Scaffold attachment factor B1 T78Q, Q15424” was -0.173 ± 0.074; that for “Scaffold attachment factor B1 T78R, Q15424” was -0.123 ± 0.055.
The value for “Scaffold attachment factor B1 T78V, Q15424” was -0.133 ± 0.07; that for “Scaffold attachment factor B1 T78W, Q15424” was -0.279 ± 0.065; that for “Scaffold attachment factor B1 T78Y, Q15424” was -0.173 ± 0.075.
Then “Scaffold attachment factor B1 V36C, Q15424”, with -0.281 ± 0.072.
Regarding “Scaffold attachment factor B1 V36D, Q15424”, the abundance fitness is -0.125 ± 0.068.
The value for “Scaffold attachment factor B1 V36E, Q15424” was -0.381 ± 0.078; that for “Scaffold attachment factor B1 V36F, Q15424” was -0.279 ± 0.084.
Then “Scaffold attachment factor B1 V36G, Q15424”, with -0.348 ± 0.057; and “Scaffold attachment factor B1 V36H, Q15424”, with -0.409 ± 0.098; and “Scaffold attachment factor B1 V36K, Q15424”, with -0.19 ± 0.078.
As for “Scaffold attachment factor B1 V36L, Q15424”, the abundance fitness was -0.063 ± 0.053.
The value for “Scaffold attachment factor B1 V36M, Q15424” was -0.031 ± 0.065; that for “Scaffold attachment factor B1 V36N, Q15424” was -0.275 ± 0.064.
The value for “Scaffold attachment factor B1 V36P, Q15424” was -0.281 ± 0.087; that for “Scaffold attachment factor B1 V36Q, Q15424” was -0.417 ± 0.085; that for “Scaffold attachment factor B1 V36R, Q15424” was -0.258 ± 0.052.
The value for “Scaffold attachment factor B1 V36T, Q15424” was -0.134 ± 0.082.
Take “Scaffold attachment factor B1 V36W, Q15424”: the abundance fitness is -0.37 ± 0.07.
The value for “Scaffold attachment factor B1 V36Y, Q15424” was -0.366 ± 0.072.
The value for “Scaffold attachment factor B1 V48C, Q15424” was -0.133 ± 0.07; that for “Scaffold attachment factor B1 V48D, Q15424” was -0.768 ± 0.11.
